Experimental data published in patent US20230295310A1 (ABCELLERA BIOLOGICS, published 2023).

Target: human EGFR, C-terminal eGFP-tagged, on CHO-K1 cells (human, UniProt P00533 25-1210)
Test: cell-based or functional assay

| EC50 CHO-K1 EGFR Low (nM); T cell activation bioassay, luciferase | EC50 CHO-K1 EGFR Med (nM); T cell activation bioassay, luciferase | Binder |
| --- | --- | --- |
| 4.27 nM | 0.257 nM | GOMP001_bsAb_019 (bispecific antibody, human IgG1, kappa, L234A L235A) heavy 1: QVQLVQSGAEVKKPGASVKVSCKASGYTFTSHWMHWVRKAPGQGLEWIGEFNPSNGRTNYNEEFKSKATMTVDTSTNTAYMELSSLRSEDTAVYYCASRDYDYDGRYFDYWGQGTLVTVSSASTKGPSVFPLAPSSKSTSGGTAALGCLVADYFPEPVTVSWNSGALTSGVHTFPAVLQSSGLYSLSSVVTVPSSSLGTQTYICNVNHKPSNTKVDEKVEPKSCDKTHTCPPCPAPEAAGGPSVFLFPPKPKDTLMISRTPEVTCVVVDVSHEDPEVKFNWYVDGVEVHNAKTKPREEQYNSTYRVVSVLTVLHQDWLNGKEYKCKVSNKALPAPIEKTISKAKGQPREPQVYTLPPSREEMTDNQVSLTCLVKGFYPSDIAVEWESNGQPENNYKTTPPVLMSDGSFFLASKLTVDKSRWQQGNVFSCSVMHEALHNHYTQKSLSLSPG light 1: RIQMTQSPSSLSASVGDRVTITCSASSSVTYMYWYQDKPGKAPKLLIYDTSNLASGVPSRFSGSGSGTDYTFTISSLQPEDIATYYCQQWSSHIFTFGQGTKVEIKRTVAAPSVFIFPPSDKQLKSGTARVVCLLNNFYPREAKVQWKVDNALQSGNSQESVTEQDSKDSTYSLSSTLTLSKADYEKHKVYACEVTHQGLSSPVTKSFNRGEC heavy 2: EVQLVDSGGGLVQPGGSLRLSCSGSGFTFSSYWMSWVRYAPGKGLEWVANIKQDGSQKYYVDRVKGRFTISRDNVKNSLYLQMNSLRVEDTAVYYCARDESSSWYWYFDLWGRGTLVTVSSASTKGPSVFPLAPSSKSTSGGTAALGCLVKDYFPEPVTVSWNSGALTSGVHTFPAVLQSSGLYSLSSVVTVPSSSLGTQTYICNVNHKPSNTKVDKKVEPKSCDKTHTCPPCPAPEAAGGPSVFLFPPKPKDTLMISRTPEVTCVVVDVSHEDPEVKFNWYVDGVEVHNAKTKPREEQYNSTYRVVSVLTVLHQDWLNGKEYKCKVSNKALPAPIEKTISKAKGQPRRPRVYTLPPSREEMTKNQVSLVCLVKGFYPSDIAVEWESNGQPENNYKTTPPVLDSDGSFFLYSVLTVDKSRWQQGNVFSCSVMHEALHNHYTQKSLSLSPG light 2: DIQMTQSPSTLSASVGDRVTLTCRASQNIVKWLAWYQRKPGDAPKLLIYKASSLESGVPSWFSGSGSGTEFTLTINSLQPDDFATYYCQQYYTYSRTFGQGTKVEIKRTVAAPSVFIFPPSDEQLKSGTASVVCLLNNFYPREAKVQWKVDNALQSGNSQESVTEQDSKDSTYSLSSTLTLSKADYEKHKVYACEVTHQGLSSPVTKSFNRGEC |
| 8.34 nM | 1.71 nM | GOMP001_bsAb_023 (bispecific antibody, human IgG1, kappa, L234A L235A) heavy 1: QVQLVQSGAEVKKPGASVKVSCKASGYTFTSHWMHWVRKAPGQGLEWIGEFNPSNGRTNYNEEFKSKATMTVDTSTNTAYMELSSLRSEDTAVYYCASRDYDYDGRYFDYWGQGTLVTVSSASTKGPSVFPLAPSSKSTSGGTAALGCLVADYFPEPVTVSWNSGALTSGVHTFPAVLQSSGLYSLSSVVTVPSSSLGTQTYICNVNHKPSNTKVDEKVEPKSCDKTHTCPPCPAPEAAGGPSVFLFPPKPKDTLMISRTPEVTCVVVDVSHEDPEVKFNWYVDGVEVHNAKTKPREEQYNSTYRVVSVLTVLHQDWLNGKEYKCKVSNKALPAPIEKTISKAKGQPREPQVYTLPPSREEMTDNQVSLTCLVKGFYPSDIAVEWESNGQPENNYKTTPPVLMSDGSFFLASKLTVDKSRWQQGNVFSCSVMHEALHNHYTQKSLSLSPG light 1: RIQMTQSPSSLSASVGDRVTITCSASSSVTYMYWYQDKPGKAPKLLIYDTSNLASGVPSRFSGSGSGTDYTFTISSLQPEDIATYYCQQWSSHIFTFGQGTKVEIKRTVAAPSVFIFPPSDKQLKSGTARVVCLLNNFYPREAKVQWKVDNALQSGNSQESVTEQDSKDSTYSLSSTLTLSKADYEKHKVYACEVTHQGLSSPVTKSFNRGEC heavy 2: QGQLVESGGGVVQPGRSLRLSCEASGFTFRSYGMHWVRYPPGKGLEWVAIIWYDGGKKYYGDRVKGRFTISRDNPKNTLYLQMNSLRPEDTAVYYCMAYDYSNGFDIWGRGTMVTVSSASTKGPSVFPLAPSSKSTSGGTAALGCLVKDYFPEPVTVSWNSGALTSGVHTFPAVLQSSGLYSLSSVVTVPSSSLGTQTYICNVNHKPSNTKVDKKVEPKSCDKTHTCPPCPAPEAAGGPSVFLFPPKPKDTLMISRTPEVTCVVVDVSHEDPEVKFNWYVDGVEVHNAKTKPREEQYNSTYRVVSVLTVLHQDWLNGKEYKCKVSNKALPAPIEKTISKAKGQPRRPRVYTLPPSREEMTKNQVSLVCLVKGFYPSDIAVEWESNGQPENNYKTTPPVLDSDGSFFLYSVLTVDKSRWQQGNVFSCSVMHEALHNHYTQKSLSLSPG light 2: DIVMTQTPLSSPVTLGQPASISCRSSQSFVHSDGSTYLSWLQRRPGDPPRLLIYKISNRFSGVPDRFSGRGAGTDFTLKISRVEAEDVGIYYCMQNTQFPYTFGQGTKLEIKRTVAAPSVFIFPPSDEQLKSGTASVVCLLNNFYPREAKVQWKVDNALQSGNSQESVTEQDSKDSTYSLSSTLTLSKADYEKHKVYACEVTHQGLSSPVTKSFNRGEC |
| 0.235 nM | 0.0102 nM | GOMP001_bsAb_020 (bispecific antibody, human IgG1, kappa, L234A L235A) heavy 1: EVQLVDSGGGLVQPGGSLRLSCSGSGFTFSSYWMSWVRYAPGKGLEWVANIKQDGSQKYYVDRVKGRFTISRDNVKNSLYLQMNSLRVEDTAVYYCARDESSSWYWYFDLWGRGTLVTVSSASTKGPSVFPLAPSSKSTSGGTAALGCLVKDYFPEPVTVSWNSGALTSGVHTFPAVLQSSGLYSLSSVVTVPSSSLGTQTYICNVNHKPSNTKVDKKVEPKSCDKTHTCPPCPAPEAAGGPSVFLFPPKPKDTLMISRTPEVTCVVVDVSHEDPEVKFNWYVDGVEVHNAKTKPREEQYNSTYRVVSVLTVLHQDWLNGKEYKCKVSNKALPAPIEKTISKAKGQPRRPRVYTLPPSREEMTKNQVSLVCLVKGFYPSDIAVEWESNGQPENNYKTTPPVLDSDGSFFLYSVLTVDKSRWQQGNVFSCSVMHEALHNHYTQKSLSLSPG light 1: DIQMTQSPSTLSASVGDRVTLTCRASQNIVKWLAWYQRKPGDAPKLLIYKASSLESGVPSWFSGSGSGTEFTLTINSLQPDDFATYYCQQYYTYSRTFGQGTKVEIKRTVAAPSVFIFPPSDEQLKSGTASVVCLLNNFYPREAKVQWKVDNALQSGNSQESVTEQDSKDSTYSLSSTLTLSKADYEKHKVYACEVTHQGLSSPVTKSFNRGEC heavy 2: QVQLVQSGAEVKKPGASVKVSCKASGYTFTSHWMHWVRYAPGQGLEWIGEFNPSNGRTNYNEKFKSKATMTVDTSTNTAYMELSSLRSEDTAVYYCASRDYDYDGRYFDYWGRGTLVTVSSASTKGPSVFPLAPSSKSTSGGTAALGCLVKDYFPEPVTVSWNSGALTSGVHTFPAVLQSSGLYSLSSVVTVPSSSLGTQTYICNVNHKPSNTKVDKKVEPKSCDKTHTCPPCPAPEAAGGPSVFLFPPKPKDTLMISRTPEVTCVVVDVSHEDPEVKFNWYVDGVEVHNAKTKPREEQYNSTYRVVSVLTVLHQDWLNGKEYKCKVSNKALPAPIEKTISKAKGQPRRPRVYTLPPSREEMTKNQVSLVCLVKGFYPSDIAVEWESNGQPENNYKTTPPVLDSDGSFFLYSVLTVDKSRWQQGNVFSCSVMHEALHNHYTQKSLSLSPG light 2: DIQMTQSPSSLSASVGDRVTITCSASSSVTYMYWYQRKPGDAPKLLIYDTSNLASGVPSRFSGSGSGTDYTFTISSLQPEDIATYYCQQWSSHIFTFGQGTKVEIKRTVAAPSVFIFPPSDEQLKSGTASVVCLLNNFYPREAKVQWKVDNALQSGNSQESVTEQDSKDSTYSLSSTLTLSKADYEKHKVYACEVTHQGLSSPVTKSFNRGEC |
| 0.245 nM | 0.122 nM | GOMP001_bsAb_024 (bispecific antibody, human IgG1, kappa, L234A L235A) heavy 1: QGQLVESGGGVVQPGRSLRLSCEASGFTFRSYGMHWVRYPPGKGLEWVAIIWYDGGKKYYGDRVKGRFTISRDNPKNTLYLQMNSLRPEDTAVYYCMAYDYSNGFDIWGRGTMVTVSSASTKGPSVFPLAPSSKSTSGGTAALGCLVKDYFPEPVTVSWNSGALTSGVHTFPAVLQSSGLYSLSSVVTVPSSSLGTQTYICNVNHKPSNTKVDKKVEPKSCDKTHTCPPCPAPEAAGGPSVFLFPPKPKDTLMISRTPEVTCVVVDVSHEDPEVKFNWYVDGVEVHNAKTKPREEQYNSTYRVVSVLTVLHQDWLNGKEYKCKVSNKALPAPIEKTISKAKGQPRRPRVYTLPPSREEMTKNQVSLVCLVKGFYPSDIAVEWESNGQPENNYKTTPPVLDSDGSFFLYSVLTVDKSRWQQGNVFSCSVMHEALHNHYTQKSLSLSPG light 1: DIVMTQTPLSSPVTLGQPASISCRSSQSFVHSDGSTYLSWLQRRPGDPPRLLIYKISNRFSGVPDRFSGRGAGTDFTLKISRVEAEDVGIYYCMQNTQFPYTFGQGTKLEIKRTVAAPSVFIFPPSDEQLKSGTASVVCLLNNFYPREAKVQWKVDNALQSGNSQESVTEQDSKDSTYSLSSTLTLSKADYEKHKVYACEVTHQGLSSPVTKSFNRGEC heavy 2: QVQLVQSGAEVKKPGASVKVSCKASGYTFTSHWMHWVRYAPGQGLEWIGEFNPSNGRTNYNEKFKSKATMTVDTSTNTAYMELSSLRSEDTAVYYCASRDYDYDGRYFDYWGRGTLVTVSSASTKGPSVFPLAPSSKSTSGGTAALGCLVKDYFPEPVTVSWNSGALTSGVHTFPAVLQSSGLYSLSSVVTVPSSSLGTQTYICNVNHKPSNTKVDKKVEPKSCDKTHTCPPCPAPEAAGGPSVFLFPPKPKDTLMISRTPEVTCVVVDVSHEDPEVKFNWYVDGVEVHNAKTKPREEQYNSTYRVVSVLTVLHQDWLNGKEYKCKVSNKALPAPIEKTISKAKGQPRRPRVYTLPPSREEMTKNQVSLVCLVKGFYPSDIAVEWESNGQPENNYKTTPPVLDSDGSFFLYSVLTVDKSRWQQGNVFSCSVMHEALHNHYTQKSLSLSPG light 2: DIQMTQSPSSLSASVGDRVTITCSASSSVTYMYWYQRKPGDAPKLLIYDTSNLASGVPSRFSGSGSGTDYTFTISSLQPEDIATYYCQQWSSHIFTFGQGTKVEIKRTVAAPSVFIFPPSDEQLKSGTASVVCLLNNFYPREAKVQWKVDNALQSGNSQESVTEQDSKDSTYSLSSTLTLSKADYEKHKVYACEVTHQGLSSPVTKSFNRGEC |
